This series can be described thus: label from the status in PepcDB records.
For the sequence “MQNYGRLFELVPGKLELFKKLQLLTEQFKNYCLLSRNFEAANTVFGQIEEIYSGILKKEPGHILVSAHLLFLYETSADLYTKLGKIEKAEESYLQALDFLSKKQRASPGNTTYVRQQGKVYRMLGRAFYEAGDSGKAAQYAGKALEILRELAGKNPEDLHYQYEISDDFTGLGKLFEDIGDIERAKECHMQEINIYRNIHERDPEDEVSEANIAATLDRIGHLYAGKGETETAKQYYEQGLEAYEKLSESYPEDIDHEVGIANTLGYIGKQYSDPEPETALKYYKKALGILEDVVQTFPDVPVYKEDLIQTLGYLESLASGQKQYENAILYRERITELSRQLASENPENFDYKKELAISFKHMGLLYEKAEKHELAKQQYSKSADVFRQVLQDENEKDLMKGLLALDLQKQATILIHEKNYGLAKEYLALLRDYYEALYEKDPEKPENWKAVCEIRTLCGILHKSMGNYDAAIQIYKSVFSILHKHPVSDPDNPDYQSIIGVLYTQLGIAYHLADEYDKSKEAFEKSIPINTRLLDEETENFLHMGDMAVALAEYSKLLTSMGMKKEAEEYAAKADEIKEKIMKKFRFDEYTVEDGDKKAL”, the protein production entry is recorded as “failed”.
Next, “MQNYKSGELALLDVPVPGCKPGGVLVRTAYSLISTGTELMKVSEAGMSMLGKARSRPDQVAKVVQSVATNGVPATYRKVMGKLDSYTPLGYSLCGVVEQVGEGIDDVKAGDLVACAGNEHALHAELNWVPRNLYAPVPDGLAARDAAFGTVGSIALQGVRQGESRLGETALVIGLGLIGQLVVQLLVASGVRVVGADPDAERCELAERLGAAACGDPASPAVESAVVELTDGHGVDQVYLAAGGGSNQPVELAARLCRDRGRVVDIGKCRLDLPWNAYYEKELDVRFSRSYGPGRYDPEYELEGRDYPIGYVRWTERRNLACFLDLVARGRVDVAPLITRTADFDDAVETYRSLQDGALKAVAVLFRYPGQPDAEAPAGAPAVTVPGVRRGAGAAAPARAARTPVRLAFVGAGNYATSMLLPHLARREGVELSTVVTTTALSAANAQRKFGFGEATTDLDAVLGDASVDAVFVVTRHSSHAELTRKALLAGKAVFVEKPLALTGEELTGVLAAVEESGNDRVQVGFNRRFAPLLQEARKRFGARTGPASLRYLVNAGRLDHGSWYLQQGTEGSRFAGEGGHFVDTASWLLGADPVSVYALAPSSNEDLQVVLGYPDGSTATLSYVTTGAAGFPKETLDLVADGKVLQLDDFVRSSVYDGRKRWVSSRLPKARDKGQSAELAAFVRAVRTGGPMPVPLESLVATTAATLAVRTALAAGAPVGLAEAR”: “failed”; “MQPIDRAQAQQRANDILVFQRELQRLDQEQAFRLEPAQARQLADYHLALLDSYRDRFDIDHDLRSQQLSLGMRVASFFGALAFAASVFLLFYRFWGLFPTVAQVAILIGSAFAAFFATLWVQAKDASGYFSKLAAMVAFACFVLDLTMLGQIFNVTPSDLALVPWALYALLLAYLCNARLLLAAAILCVMGFIAARVGTWGGGYWLSVGERPENFFPAAALIFAVPLCFDQRNFSGFAVIYRVFALLGLFLPMLVLANWGSGSYLALPSALIEGLYQVAGFVAAALVIWLGARRNWADVSNTGITFFVIFLYTKFFDWWWEAMPKYLFFLVLGLSALLILLVLRRLRTPLGIAARTDA”: “failed”; “MQPLVSTVLVPSQGIPLCCNEICLKSLQKEVAMPLKDLLIALVVIVAWGVNFVVIKVGLDGLPPMLLGALRFLLVAFPAILLVRRPKLPWRWLIAYGATISLGQFAFLFQAMYSGMPPGLASLILQSQAFFTLGFAALFLGERLRLASVLGLLVAAGGLALIGSEDGGHVPMLALVLTLCGGAMWGLGNIITRRFGSVDLVALVIWGGLIPPLPFLALSWWLEGPERIGHALANISWSSVLALAYLAFVATMLGYSLWSKLLSRHPAGKVAPFSLLVPVIGLSSSALLLGERLTATQGWGALLVMAGLLVNVFGARIGQRLRAANA”: “failed”.
The entry for “MQPLVSVLICAYNVEKYFAQSLAAVVNQTWRNLDILIVDDGSTDGTPAIARRFQEQDGRIRIISNPRNLGFIASLNIGLDELAKSGGGGEYIARTDADDIASPGWIEKIVGEMEKDRSIIAMGAWLEVLSEENNKSVLAAIARNGAIWDKPTRHEDIVAVFPFGNPIHNNTMIMRRSVIDGGLRFDPAYIHAEDYKFWYEAGKLGRLAYYPEALVKYRFHQDQTSSKYNLQQRRTAWKIKEEIRAGYWKAAGIAVGADCLNYGLLKSTAYALYEKALSGQDIGCLRLFLYEYFLSLEKYSLTDLLDFLTDRVMRKLFAAPQYRKILKKMLRPWKYRSYLEHHHHHH” is “failed”; for “MQPYEKYLKLNSQKLRADQTDTERKLWQRINRDQLLGFRFNRQKPLLSYIVDFYCAKTKLIIELDGSQHYKPDYQEKDALRDAELNSLGFTVMRFSNDEVMREIEAVVEQIYLFLENVRTD” it is “failed”.
Next, “MQQFHIRRLREEDIPLLKGLLVELDTSHYEAEPNFYRSPEEMAQLREERGVFDKYFDDSMIAFIACSHRQVVGFISGTVRDIDSMVSVAKRVGFVNELVVSESHRNLGIGLSLMDKIESDLCNQGIEEIGLTVASFNHEGEDFYHKMGYRVMTKMMSKRVKDLEHHHHHH”: “not failed”; “MQQINFYRQRVAINVLAKDIANAKAIYEAAEGHAVIGVLSAQFATVEEGVPEVKRWMAEVPSISVGLGAGDPAQYYKAAMIAAHTHPAHVNQTFTGSGFAAGALAATGGEQTHINALVSPTGTPGEVVISTGVSSSQGTPARVSCEAAVRMMQDMGAHAAKFFPMGGEKSLPELYALATTAARHGMTLIEPTGGISLDNFGIILQTCLEAGVPRVMPHVYSSIIDPQTGNTRPEDIIQLMEIVKALV”: “failed”.
On to “MQQIWGSERRRTAIGRMALSVPARQALADRQLVAERTILDYGCGRGDDVRALQQLDCQVVGWDPYYRTDTQLVATDVVLLTYVLNVIEDPAERRQTLKQAWELTSTLLVVSARLTWEKSKVHGEGFGDGLLTSRQTFQHLYATSELREYVEQVTGAR”, for which the protein production entry was “failed”.
The entry for “MQQKLENIKFVITDVDGVLTDGQLHYDANGEAIKSFHVRDGLGIKMLMDADIQVAVLSGRDSPILRRRIADLGIKLFFLGKLEKETACFDLMKQAGVTAEQTAYIGDDSVDLPAFAACGTSFAVADAPIYVKNAVDHVLSTHGGKGAFREMSDMILQAQGKSSVFDTAQGFLKSVKSMGQ” is “not failed”.
With “MQQMNSRLKLTMAVALTAIVLLAGCASTPDWPVSARDNTKPVYSEKLLEQVPFYPQEKYQCGPASLAMMLNAQGLATNPDILKELVYLPGKEGSLQVEMVAGARAHDMLVYRLEPEPEAILAEVEAGNPVLVMQNLRLSWWPQWHFAVVVGYDSTEQVFILNTDTRRHYEMPYKVFYNTWSKAERWAAVILPPDQTPASAEMLPYLQAAHDLETTGHTLAAQRAYQTAITRWPEQPTPLMANANLQYQLGHFQNAVGSFLRVVEKFPGFSEGWNNLAIALNDAGCPARARQASECAAGLAPKRFKPLQDEARSHAADAAACPQIPACPSNAH”, the protein production entry was “failed”.
In the case of “MQQPTASVVSYVAEYHKATETTMGRYKKVIEITGHDEVAAKLLEGLIDAGTRYFSKVVEMEHRMASARFRLDGEELRELTETLDRSRRLAHESLISSLHVFNRYIVKEYGEELKEAGIEGGIFPKPEANRDRIAIADWAGELLTGIYENRHR”, the protein production result is “not failed”.
For “MQRFIDNSLESNWLWLTARICLALMFVASGLAKLFDYQASLEEMRAAGLEPAWLFNIATAVTLLAGSALVLLDRKLWLGAGALAVFLLLTILIVHTFWSKTGVEAKLAMFFALEHIAVIGGLIATAIASAQRQRLRQDVSVAATYQKA”, the protein production entry is recorded as “failed”.
The entry for “MQRIRIIDSHTGGEPTRLVIGGFPDLGQGDMAERRRLLGERHDAWRAACILEPRGSDVLVGALLCAPVDPEACAGVIFFNNSGYLGMCGHGTIGLVASLAHLGRIGPGVHRIETPVGEVEATLHEDGSVSVRNVPAYRYRRQVSVEVPGIGRVSGDIAWGGNWFFLVAGHGQRLAGDNLDALTAYTVAVQQALDDQDIRGEDGGAIDHIELFADDPHADSRNFVLCPGKAYDRSPCGTGTSAKLACLAADGKLLPGQPWRQASVIGSQFEGRYEWLDGQPGGPIVPTIRGRAHVSAEATLLLADDDPFAWGIRR” is “not failed”.

The record behind these values is a protein production outcome set (Wang et al. 2014).
